Source: publication PMC6222095
Where “and” joins values, the source holds several entries; their conditions need not be identical. Identical values can stand only once. Each block holds one substance with its values, some of them ahead of it.

How the values were obtained:
[1] = biological target: recombinant FH SCR-6/8 Tyr-402 (human); assay: SPR; Biacore X100, 150 RU (His-402 also 400 RU) of SCR-6/8 amine-coupled to a CM4 chip, SCR-6/8 allotypes flowed at 5-40 μM, 25 °C, HEPES buffer with 0.3 mg/ml nonspecific binding reducer; steady-state fits
[2] = biological target: recombinant FH SCR-6/8 His-402 (human); assay: as above
[3] = biological target: complement factor H, homozygous Tyr-402, homozygous or heterozygous at I62V (human) (UniProt P08603); assay: SAXS; concentration dependence of Guinier I(0)/c at 0.4-3.3 mg/ml in HEPES buffer, two samples of each allotype; KD estimated assuming a monomer-dimer equilibrium (dimer to monomers)
[4] = biological target: complement factor H, homozygous Tyr-402, homozygous or heterozygous at I62V (human) (UniProt P08603); assay: AUC; sedimentation velocity, 20 °C, 50,000 and 60,000 rpm, HEPES buffer (10 mM HEPES, 137 mM NaCl, pH 7.4), five samples of each allotype at 0.5, 1.1 and 2.1 mg/ml; c(s) peak integration; dimer and trimer percentages at 1.1 mg/ml
[5] = biological target: complement factor H, homozygous Tyr-402/Val-62 allotype (human) (UniProt P08603); assay: native MS; Q-ToF nanoflow, FH at about 4 mg/ml (4.4 or 3.6 mg/ml) in 1 M ammonium acetate, pH 7.0; peak integration
[6] = biological target: complement factor H, homozygous Tyr-402/Val-62 allotype (human) (UniProt P08603); assay: SPR; Biacore X100, 800 RU of full-length FH amine-coupled to a CM3 chip, FH allotypes flowed at 1.3-12.3 μM, 25 °C, HEPES buffer; estimated KD from steady-state 1:1 affinity fit of maximum responses; sensorgrams did not fit a 1:1 kinetic model
[7] = biological target: complement factor H, homozygous Tyr-402/Val-62 allotype (human) (UniProt P08603); assay: native MS; Q-ToF nanoflow, FH at about 4 mg/ml (3.9 mg/ml, 25.3 μM) in 140 mM ammonium acetate, pH 7.0; peak integration
[8] = biological target: complement factor H, double homozygous His-402/Val-62 allotype (human) (UniProt P08603); assay: native MS; Q-ToF nanoflow, FH at about 4 mg/ml (4.4 or 3.6 mg/ml) in 1 M ammonium acetate, pH 7.0; peak integration
[9] = biological target: complement factor H, double homozygous His-402/Val-62 allotype (human) (UniProt P08603); assay: SPR; Biacore X100, 800 RU of full-length FH amine-coupled to a CM3 chip, FH allotypes flowed at 1.3-12.3 μM, 25 °C, HEPES buffer; estimated KD from steady-state 1:1 affinity fit of maximum responses; sensorgrams did not fit a 1:1 kinetic model
[10] = biological target: complement factor H, double homozygous His-402/Val-62 allotype (human) (UniProt P08603); assay: SAXS; concentration dependence of Guinier I(0)/c at 0.4-3.3 mg/ml in HEPES buffer, two samples of each allotype; KD estimated assuming a monomer-dimer equilibrium (dimer to monomers)
[11] = biological target: complement factor H, double homozygous His-402/Val-62 allotype (human) (UniProt P08603); assay: AUC; sedimentation velocity, 20 °C, 50,000 and 60,000 rpm, HEPES buffer (10 mM HEPES, 137 mM NaCl, pH 7.4), five samples of each allotype at 0.5, 1.1 and 2.1 mg/ml; c(s) peak integration; dimer and trimer percentages at 1.1 mg/ml
[12] = biological target: complement factor H, double homozygous His-402/Val-62 allotype (human) (UniProt P08603); assay: native MS; Q-ToF nanoflow, FH at about 4 mg/ml (3.9 mg/ml, 25.3 μM) in 140 mM ammonium acetate, pH 7.0; peak integration

- Kd [1]: > 40 µM
- Kd [2]: > 40 µM
Substance: recombinant FH SCR-6/8 His-402 (domain or fragment)

- Kd [1]: > 40 µM
- Kd [2]: > 40 µM
Substance: recombinant FH SCR-6/8 Tyr-402 (domain or fragment)

- Kd [3]: 16 µM and 18 µM
- percent dimer [4]: 4%
- percent oligomers (peaks 2-9) [4]: 11.7%
- percent trimer [4]: 2.1%
- stoichiometry N [4]: < 9
Substance: complement factor H, homozygous Tyr-402, homozygous or heterozygous at I62V (from UniProt P08603 19-1231) (natural protein)

- percent dimer [5]: 10%
- stoichiometry N [5]: 2
- Kd [6]: 8 µM
- percent dimer [7]: 24%
- percent trimer [7]: 4%
- stoichiometry N [7]: < 3
Substance: complement factor H, homozygous Tyr-402/Val-62 allotype (from UniProt P08603 19-1231) (natural protein)

- percent dimer [8]: 2%
- stoichiometry N [8]: 2
- Kd [9]: 6.7 µM
- Kd [10]: 11 µM and 22 µM
- percent dimer [11]: 5.7%
- percent oligomers (peaks 2-9) [11]: 12.8%
- percent trimer [11]: 2.5%
- stoichiometry N [11]: < 9
- percent dimer [12]: 17%
- percent trimer [12]: 6%
- stoichiometry N [12]: < 3
Substance: complement factor H, double homozygous His-402/Val-62 allotype (from UniProt P08603 19-1231) (natural protein)
